The values that follow come from article PMC6545883.

The data set relates to NC(=O)c1ccc[n+]([C@@H]2O[C@H](COP(=O)(O)OP(=O)(O)OC[C@H]3O[C@@H](n4cnc5c(N)ncnc54)[C@H](OP(=O)(O)O)[C@@H]3O)[C@@H](O)[C@H]2O)c1. Description: purified protein. The settings on record: varied: cofactor.

Take PtmO8 (Streptomyces platensis): the Km result is “(1.11 ± 0.11) × 10^3 µM”, the Vmax stood at 3.7 µM/min, the kcat is 110 s⁻¹ and the specificity constant (kcat/Km) was 100000 M⁻¹ s⁻¹.

The term Vmax denotes the top rate of the reaction or transport when substrate is in excess. As usually defined, the kcat is the maximal rate divided by the concentration of active sites. As usually defined, the kcat/Km is the second-order rate constant that governs catalysis at low substrate concentration.
